From patent US20140087995A1 (published 2014)
Numbered stars: 1 amine (or outer) side, 2 acyl side, 3 side chain; on linkers, the order of the positions; unused ones are H or OH. Bridge positions count the residues as written; N and C are the ends. Side chains are listed from the residue outwards. Ends that are not written are not given here. * marks the point of attachment. C20 diacid = O=C(O)CCCCCCCCCCCCCCCCCCC(=O)*; γGlu = O=C(O)[C@H](CCC(=O)[*:2])N[*:1]; AEEA = NCCOCCOCC(=O)O

T1: human amylin 3(a) receptor (human calcitonin receptor co-expressed with RAMP-3) (human, UniProt P30988 25-474; O60896 24-148, limits assumed)
T1 sequence (looked up) 1: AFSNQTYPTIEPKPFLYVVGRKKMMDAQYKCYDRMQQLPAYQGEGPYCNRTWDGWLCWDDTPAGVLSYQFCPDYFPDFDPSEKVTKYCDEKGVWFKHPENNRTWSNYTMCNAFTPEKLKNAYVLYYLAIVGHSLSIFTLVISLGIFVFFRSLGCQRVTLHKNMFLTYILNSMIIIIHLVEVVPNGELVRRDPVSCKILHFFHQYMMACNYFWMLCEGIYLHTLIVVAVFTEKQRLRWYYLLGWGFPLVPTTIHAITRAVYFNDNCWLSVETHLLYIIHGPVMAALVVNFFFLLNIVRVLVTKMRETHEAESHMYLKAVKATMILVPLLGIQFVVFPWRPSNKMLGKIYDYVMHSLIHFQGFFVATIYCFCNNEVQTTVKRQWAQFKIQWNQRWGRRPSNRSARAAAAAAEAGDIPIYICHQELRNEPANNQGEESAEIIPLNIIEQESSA
T1 sequence (looked up) 2: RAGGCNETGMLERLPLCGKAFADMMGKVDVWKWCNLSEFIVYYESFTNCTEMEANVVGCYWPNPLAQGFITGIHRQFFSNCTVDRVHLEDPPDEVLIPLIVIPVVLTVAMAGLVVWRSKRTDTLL

B1: N^ε1-[2-[2-[2-[[(4S)-4-carboxy-4-(19-carboxynonadecanoylamino)butanoyl]amino]ethoxy]ethoxy]acetyl]-[Arg17,Pro21,Pro27,Pro34]-h-amylin (peptide)
peptide: K([AEEA-γGlu-C20 diacid])CNTATCATQRLANFLRHSSPNFGAIPSSTNVGPNTY-NH2
modifications: disulfide 2-7; N-terminus assumed
SMILES: CC[C@H](C)[C@H](NC(=O)[C@H](C)NC(=O)CNC(=O)[C@H](Cc1ccccc1)NC(=O)[C@H](CC(N)=O)NC(=O)[C@@H]1CCCN1C(=O)[C@H](CO)NC(=O)[C@H](CO)NC(=O)[C@H](Cc1c[nH]cn1)NC(=O)[C@H](CCCNC(=N)N)NC(=O)[C@H](CC(C)C)NC(=O)[C@H](Cc1ccccc1)NC(=O)[C@H](CC(N)=O)NC(=O)[C@H](C)NC(=O)[C@H](CC(C)C)NC(=O)[C@H](CCCNC(=N)N)NC(=O)[C@H](CCC(N)=O)NC(=O)[C@@H](NC(=O)[C@H](C)NC(=O)[C@@H]1CSSC[C@H](NC(=O)[C@@H](N)CCCCNC(=O)COCCOCCNC(=O)CC[C@H](NC(=O)CCCCCCCCCCCCCCCCCCC(=O)O)C(=O)O)C(=O)N[C@@H](CC(N)=O)C(=O)N[C@@H]([C@@H](C)O)C(=O)N[C@@H](C)C(=O)N[C@@H]([C@@H](C)O)C(=O)N1)[C@@H](C)O)C(=O)N1CCC[C@H]1C(=O)N[C@@H](CO)C(=O)N[C@@H](CO)C(=O)N[C@H](C(=O)N[C@@H](CC(N)=O)C(=O)N[C@H](C(=O)NCC(=O)N1CCC[C@H]1C(=O)N[C@@H](CC(N)=O)C(=O)N[C@H](C(=O)N[C@@H](Cc1ccc(O)cc1)C(N)=O)[C@@H](C)O)C(C)C)[C@@H](C)O
notes: also called compound 50
B2: N^ε1-[(4S)-4-carboxy-4-(19-carboxynonadecanoylamino)butanoyl]-[Arg14,Arg17,Pro21,Pro27,Pro31]-h-amylin (peptide)
peptide: K([γGlu-C20 diacid])CNTATCATQRLARFLRHSSPNFGAIPSSTPVGSNTY-NH2
modifications: disulfide 2-7; N-terminus assumed
SMILES: CC[C@H](C)[C@H](NC(=O)[C@H](C)NC(=O)CNC(=O)[C@H](Cc1ccccc1)NC(=O)[C@H](CC(N)=O)NC(=O)[C@@H]1CCCN1C(=O)[C@H](CO)NC(=O)[C@H](CO)NC(=O)[C@H](Cc1c[nH]cn1)NC(=O)[C@H](CCCNC(=N)N)NC(=O)[C@H](CC(C)C)NC(=O)[C@H](Cc1ccccc1)NC(=O)[C@H](CCCNC(=N)N)NC(=O)[C@H](C)NC(=O)[C@H](CC(C)C)NC(=O)[C@H](CCCNC(=N)N)NC(=O)[C@H](CCC(N)=O)NC(=O)[C@@H](NC(=O)[C@H](C)NC(=O)[C@@H]1CSSC[C@H](NC(=O)[C@@H](N)CCCCNC(=O)CC[C@H](NC(=O)CCCCCCCCCCCCCCCCCCC(=O)O)C(=O)O)C(=O)N[C@@H](CC(N)=O)C(=O)N[C@@H]([C@@H](C)O)C(=O)N[C@@H](C)C(=O)N[C@@H]([C@@H](C)O)C(=O)N1)[C@@H](C)O)C(=O)N1CCC[C@H]1C(=O)N[C@@H](CO)C(=O)N[C@@H](CO)C(=O)N[C@H](C(=O)N1CCC[C@H]1C(=O)N[C@H](C(=O)NCC(=O)N[C@@H](CO)C(=O)N[C@@H](CC(N)=O)C(=O)N[C@H](C(=O)N[C@@H](Cc1ccc(O)cc1)C(N)=O)[C@@H](C)O)C(C)C)[C@@H](C)O
notes: also called compound 63
B3: N^ε1-[2-[2-[2-[[(4S)-4-carboxy-4-(19-carboxynonadecanoylamino)butanoyl]amino]ethoxy]ethoxy]acetyl]-[Thr14,Arg17,Pro21,Pro27,Pro31]-h-amylin (peptide)
peptide: K([AEEA-γGlu-C20 diacid])CNTATCATQRLATFLRHSSPNFGAIPSSTPVGSNTY-NH2
modifications: disulfide 2-7; N-terminus assumed
SMILES: CC[C@H](C)[C@H](NC(=O)[C@H](C)NC(=O)CNC(=O)[C@H](Cc1ccccc1)NC(=O)[C@H](CC(N)=O)NC(=O)[C@@H]1CCCN1C(=O)[C@H](CO)NC(=O)[C@H](CO)NC(=O)[C@H](Cc1c[nH]cn1)NC(=O)[C@H](CCCNC(=N)N)NC(=O)[C@H](CC(C)C)NC(=O)[C@H](Cc1ccccc1)NC(=O)[C@@H](NC(=O)[C@H](C)NC(=O)[C@H](CC(C)C)NC(=O)[C@H](CCCNC(=N)N)NC(=O)[C@H](CCC(N)=O)NC(=O)[C@@H](NC(=O)[C@H](C)NC(=O)[C@@H]1CSSC[C@H](NC(=O)[C@@H](N)CCCCNC(=O)COCCOCCNC(=O)CC[C@H](NC(=O)CCCCCCCCCCCCCCCCCCC(=O)O)C(=O)O)C(=O)N[C@@H](CC(N)=O)C(=O)N[C@@H]([C@@H](C)O)C(=O)N[C@@H](C)C(=O)N[C@@H]([C@@H](C)O)C(=O)N1)[C@@H](C)O)[C@@H](C)O)C(=O)N1CCC[C@H]1C(=O)N[C@@H](CO)C(=O)N[C@@H](CO)C(=O)N[C@H](C(=O)N1CCC[C@H]1C(=O)N[C@H](C(=O)NCC(=O)N[C@@H](CO)C(=O)N[C@@H](CC(N)=O)C(=O)N[C@H](C(=O)N[C@@H](Cc1ccc(O)cc1)C(N)=O)[C@@H](C)O)C(C)C)[C@@H](C)O
notes: also called compound 75
B4: N^ε1-[2-[2-[2-[[(4S)-4-carboxy-4-(19-carboxynonadecanoylamino)butanoyl]amino]ethoxy]ethoxy]acetyl]-[Lys14,Arg17,Pro21,Pro27,Pro31]-h-amylin (peptide)
peptide: K([AEEA-γGlu-C20 diacid])CNTATCATQRLAKFLRHSSPNFGAIPSSTPVGSNTY-NH2
modifications: disulfide 2-7; N-terminus assumed
SMILES: CC[C@H](C)[C@H](NC(=O)[C@H](C)NC(=O)CNC(=O)[C@H](Cc1ccccc1)NC(=O)[C@H](CC(N)=O)NC(=O)[C@@H]1CCCN1C(=O)[C@H](CO)NC(=O)[C@H](CO)NC(=O)[C@H](Cc1c[nH]cn1)NC(=O)[C@H](CCCNC(=N)N)NC(=O)[C@H](CC(C)C)NC(=O)[C@H](Cc1ccccc1)NC(=O)[C@H](CCCCN)NC(=O)[C@H](C)NC(=O)[C@H](CC(C)C)NC(=O)[C@H](CCCNC(=N)N)NC(=O)[C@H](CCC(N)=O)NC(=O)[C@@H](NC(=O)[C@H](C)NC(=O)[C@@H]1CSSC[C@H](NC(=O)[C@@H](N)CCCCNC(=O)COCCOCCNC(=O)CC[C@H](NC(=O)CCCCCCCCCCCCCCCCCCC(=O)O)C(=O)O)C(=O)N[C@@H](CC(N)=O)C(=O)N[C@@H]([C@@H](C)O)C(=O)N[C@@H](C)C(=O)N[C@@H]([C@@H](C)O)C(=O)N1)[C@@H](C)O)C(=O)N1CCC[C@H]1C(=O)N[C@@H](CO)C(=O)N[C@@H](CO)C(=O)N[C@H](C(=O)N1CCC[C@H]1C(=O)N[C@H](C(=O)NCC(=O)N[C@@H](CO)C(=O)N[C@@H](CC(N)=O)C(=O)N[C@H](C(=O)N[C@@H](Cc1ccc(O)cc1)C(N)=O)[C@@H](C)O)C(C)C)[C@@H](C)O
notes: also called compound 74
B5: N^ε1-[2-[2-[2-[[(4S)-4-carboxy-4-(19-carboxynonadecanoylamino)butanoyl]amino]ethoxy]ethoxy]acetyl]-[His14,Arg17,Pro21,Pro27,Arg34]-h-amylin (peptide)
peptide: K([AEEA-γGlu-C20 diacid])CNTATCATQRLAHFLRHSSPNFGAIPSSTNVGRNTY-NH2
modifications: disulfide 2-7; N-terminus assumed
SMILES: CC[C@H](C)[C@H](NC(=O)[C@H](C)NC(=O)CNC(=O)[C@H](Cc1ccccc1)NC(=O)[C@H](CC(N)=O)NC(=O)[C@@H]1CCCN1C(=O)[C@H](CO)NC(=O)[C@H](CO)NC(=O)[C@H](Cc1c[nH]cn1)NC(=O)[C@H](CCCNC(=N)N)NC(=O)[C@H](CC(C)C)NC(=O)[C@H](Cc1ccccc1)NC(=O)[C@H](Cc1c[nH]cn1)NC(=O)[C@H](C)NC(=O)[C@H](CC(C)C)NC(=O)[C@H](CCCNC(=N)N)NC(=O)[C@H](CCC(N)=O)NC(=O)[C@@H](NC(=O)[C@H](C)NC(=O)[C@@H]1CSSC[C@H](NC(=O)[C@@H](N)CCCCNC(=O)COCCOCCNC(=O)CC[C@H](NC(=O)CCCCCCCCCCCCCCCCCCC(=O)O)C(=O)O)C(=O)N[C@@H](CC(N)=O)C(=O)N[C@@H]([C@@H](C)O)C(=O)N[C@@H](C)C(=O)N[C@@H]([C@@H](C)O)C(=O)N1)[C@@H](C)O)C(=O)N1CCC[C@H]1C(=O)N[C@@H](CO)C(=O)N[C@@H](CO)C(=O)N[C@H](C(=O)N[C@@H](CC(N)=O)C(=O)N[C@H](C(=O)NCC(=O)N[C@@H](CCCNC(=N)N)C(=O)N[C@@H](CC(N)=O)C(=O)N[C@H](C(=O)N[C@@H](Cc1ccc(O)cc1)C(N)=O)[C@@H](C)O)C(C)C)[C@@H](C)O
notes: also called compound 84
B6: N^ε1-[2-[2-[2-[[(4S)-4-carboxy-4-(19-carboxynonadecanoylamino)butanoyl]amino]ethoxy]ethoxy]acetyl]-[His14,Arg17,Pro21,Pro27,Pro34]-h-amylin (peptide)
peptide: K([AEEA-γGlu-C20 diacid])CNTATCATQRLAHFLRHSSPNFGAIPSSTNVGPNTY-NH2
modifications: disulfide 2-7; N-terminus assumed
SMILES: CC[C@H](C)[C@H](NC(=O)[C@H](C)NC(=O)CNC(=O)[C@H](Cc1ccccc1)NC(=O)[C@H](CC(N)=O)NC(=O)[C@@H]1CCCN1C(=O)[C@H](CO)NC(=O)[C@H](CO)NC(=O)[C@H](Cc1c[nH]cn1)NC(=O)[C@H](CCCNC(=N)N)NC(=O)[C@H](CC(C)C)NC(=O)[C@H](Cc1ccccc1)NC(=O)[C@H](Cc1c[nH]cn1)NC(=O)[C@H](C)NC(=O)[C@H](CC(C)C)NC(=O)[C@H](CCCNC(=N)N)NC(=O)[C@H](CCC(N)=O)NC(=O)[C@@H](NC(=O)[C@H](C)NC(=O)[C@@H]1CSSC[C@H](NC(=O)[C@@H](N)CCCCNC(=O)COCCOCCNC(=O)CC[C@H](NC(=O)CCCCCCCCCCCCCCCCCCC(=O)O)C(=O)O)C(=O)N[C@@H](CC(N)=O)C(=O)N[C@@H]([C@@H](C)O)C(=O)N[C@@H](C)C(=O)N[C@@H]([C@@H](C)O)C(=O)N1)[C@@H](C)O)C(=O)N1CCC[C@H]1C(=O)N[C@@H](CO)C(=O)N[C@@H](CO)C(=O)N[C@H](C(=O)N[C@@H](CC(N)=O)C(=O)N[C@H](C(=O)NCC(=O)N1CCC[C@H]1C(=O)N[C@@H](CC(N)=O)C(=O)N[C@H](C(=O)N[C@@H](Cc1ccc(O)cc1)C(N)=O)[C@@H](C)O)C(C)C)[C@@H](C)O
notes: also called compound 68

These binders were tested against T1, human amylin 3(a) receptor (human …) (assay: cell-based or functional assay).
In the case of B1, the “Ratio hCT/hAmylin funct. (hCTR EC50 over hAmylin-R EC50)” value is reported as 17.4 and the “hAmylin-R funct. EC50 (pM)” value is reported as 38 pM. With B2 the “Ratio hCT/hAmylin funct. (hCTR EC50 over hAmylin-R EC50)” value was 139 and the “hAmylin-R funct. EC50 (pM)” value was 37 pM. B3 was tested, and the “Ratio hCT/hAmylin funct. (hCTR EC50 over hAmylin-R EC50)” value was 30.6 and the “hAmylin-R funct. EC50 (pM)” value was 296 pM. For B4, the “Ratio hCT/hAmylin funct. (hCTR EC50 over hAmylin-R EC50)” value was 56.3 and the “hAmylin-R funct. EC50 (pM)” value was 666 pM. With B5 the “Ratio hCT/hAmylin funct. (hCTR EC50 over hAmylin-R EC50)” value was 32.5 and the “hAmylin-R funct. EC50 (pM)” value was 169 pM. B6 was tested, and the “Ratio hCT/hAmylin funct. (hCTR EC50 over hAmylin-R EC50)” value was 17.4 and the “hAmylin-R funct. EC50 (pM)” value was 54 pM.
